The assay addresses T1, synthesized human Aβ42 peptide (human, UniProt P05067 672-713).
T1 construct: also called Aβ peptide
As to the kind of experiment: ELISA. The note with it: one partner purified. (An ELISA detects its analyte on a solid surface through an enzyme-linked reagent.)

The record followed here is publication PMC6562043 (Scientific Reports, 2019).

B1: human PrP^C (transgene of TgHuPrP mice) (natural protein)
chain: not shown
Turning to B1, the “binding relative to mouse PrP^C, corrected for PrP expression” value amounted to 177 ± 9.5%.
